Earlier results, collected in article PMC4666935.

Tests used:
[1] = molecular target: uPA-PAI-1 complex (Homo sapiens) (UniProt P00749)
PAI-1 (Homo sapiens) = PAI-1 (Homo sapiens) (UniProt P05121)
PAI-1 (Homo sapiens), sequence (P05121 24-402): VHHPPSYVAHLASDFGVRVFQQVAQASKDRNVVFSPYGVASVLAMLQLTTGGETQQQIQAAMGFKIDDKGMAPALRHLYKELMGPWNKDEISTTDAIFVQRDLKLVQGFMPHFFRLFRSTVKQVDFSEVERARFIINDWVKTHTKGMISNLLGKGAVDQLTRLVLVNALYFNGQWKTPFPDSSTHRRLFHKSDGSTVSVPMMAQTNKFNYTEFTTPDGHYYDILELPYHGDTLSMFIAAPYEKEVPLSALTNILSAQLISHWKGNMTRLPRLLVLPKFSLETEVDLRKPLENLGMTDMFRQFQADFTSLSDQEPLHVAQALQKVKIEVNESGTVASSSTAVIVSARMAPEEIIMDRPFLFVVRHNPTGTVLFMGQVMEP

vasoinhibin, sequence (P01236 29-227): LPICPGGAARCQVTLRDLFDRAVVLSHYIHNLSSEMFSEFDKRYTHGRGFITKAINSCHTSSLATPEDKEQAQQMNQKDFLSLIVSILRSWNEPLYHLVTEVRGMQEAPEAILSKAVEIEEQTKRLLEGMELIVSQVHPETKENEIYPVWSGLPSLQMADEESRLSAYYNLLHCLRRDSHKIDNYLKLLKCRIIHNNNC
uPA-PAI-1 complex (Homo sapiens), sequence (P05121 24-402, chain 2 of 2, other chains not shown): as the sequence (P05121 24-402) above

- Kd [1]: 500 nM
- Kd (PAI-1 (Homo sapiens)): 1000 nM
Substance: vasoinhibin (from UniProt P01236)
